Measured values taken from US20230302083A1, “HIGHLY-NETWORKED C[…] COMPOSITION” (priority 2020, published 2023).

Target: HLA-A*0301 (human)

B1: … (peptide)
peptide: GNYQCGHYK
modifications: not checked
HLA-A*0301 stabilization relative to HIV RK9: > 50%

B2: … (peptide)
peptide: VMCGGSLYVK
modifications: not checked
HLA-A*0301 stabilization relative to HIV RK9: > 50%

B3: … (peptide)
peptide: RVIHFGAGSDK
modifications: not checked
HLA-A*0301 stabilization relative to HIV RK9: > 50%

B4: … (peptide)
peptide: KGIYQTSNFR
modifications: not checked
HLA-A*0301 stabilization relative to HIV RK9: > 50%
